Experimental data from patent US8889130B2, “Treatment of osteoarthritis and pain” (Abbvie Inc., priority 2011, dated 2014).

T1: hIL-1α (Homo sapiens, UniProt P01583)
T1 sequence (P01583 113-271): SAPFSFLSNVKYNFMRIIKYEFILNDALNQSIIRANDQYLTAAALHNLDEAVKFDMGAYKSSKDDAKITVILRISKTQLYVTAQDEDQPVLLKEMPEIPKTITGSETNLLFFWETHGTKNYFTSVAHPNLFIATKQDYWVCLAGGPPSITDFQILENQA

B1: 13F5.G5-Ch: murine-human chimeric form of 13F5.G5 (anti-hIL-1β) with human constant region (antibody, V domains shown)
VH: QVQLQQSGAELVRPGSSVKISCKASGYAFSSYWMNWVKQRPGQGLEWIGQIYPGDGDTNYNGKFKGKATLTADKSSSTSYMQLSGLTSEDSAMYFCVRFPTGNDYYAMDYWGQGTSVTVSS
VL: NIVLTQSPASLAVSLGQRATISCRASESVDSYGNSYMHWYQQKPGQPPKLLIYLASNLESGVPARFSGSGSRTDFTLTIDPVEADDAATYYCQQNNEDPFTFGSGTKLEIKR
B2: 13F5.G5: murine monoclonal antibody to human IL-1β; VH SEQ ID NO: 95, VL SEQ ID NO: 96 (antibody, listed as Mus musculus, V domains shown)
VH: B1 VH
VL: B1 VL
B3: 3D12.E3-Ch: murine-human chimeric form of 3D12.E3 (anti-hIL-1α) with human constant region (antibody, V domains shown)
VH: QIQLVQSGPELKKPGETVKISCKASGYTFRNYGMNWVKQAPGKDLKRMAWINTYTGESTYADDFKGRFAFSLETSASTAYLQINNLKNEDTATYFCARGIYYYGSSYAMDYWGQGTSVTVSS
VL: NIQMTQTTSSLSASLGDRVTISCRASQDISNCLNWYQQKPDGTVKLLIYYTSRLHSGVPSRFSGSGSGTDYSLTISNLEQEDIATYFCQQGKTLPYAFGGGTKLEINR
B4: 3D12.E3: murine monoclonal antibody to human IL-1α; VH SEQ ID NO: 89, VL SEQ ID NO: 90 (antibody, listed as Mus musculus, V domains shown)
VH: B3 VH
VL: B3 VL

Experiments:
[1] = Size exclusion chromatography (SEC): physical homogeneity and in vitro stability; type: physicochemical; conditions: 0.2-0.4 mg/ml in PBS, SEC
Description: For measuring molecular weight (MW) of light and heavy chains of DVD-Ig binding protein, 10 μL of DVD-Ig molecule (0.8 μg/μL) was reduced by 1.0 M DTT solution (5 μL). A PLRP-S, 8μ, 4000 A, and 1×150 mm protein column (Michrom BioResource, Auburn, Mass.) was used to separate heavy and light chains of DVD-Ig molecule. Agilent HP1100 Capillary HPLC (Agilent Technologies Inc., Pala Alto, Calif.) was used with the mass spectrometer QSTAR (Applied Biosystems, Foster City, Calif.). The valco valve was set at 10 minutes to switch the flow from waste to MS for desalting sample. Buffer A was 0.02% TFA, 0.08% FA, 0.1% ACN and 99.8% HPLC-H2O. Buffer B contained 0.02% TFA, 0.08% FA, 0.1% HPLC-H2O, and 99.8% ACN. The HPLC flow rate was 50 μL/minute and the sample injection volume was […]. The temperature of the column oven was set at 60° C., and separation gradient was: 5% B for 5 minutes; 5% B to 65% B for 35 minutes; 65% B to 95% B for another 5 minutes, and 95% B to 5% B for 5 minutes. TOFMS scan was from 800 to 2500 amu, and cycles were 3600. To determine the MW of full length DVD-Ig binding protein, a Protein MicroTrap cartridge (Michrom BioResource, Auburn, Mass.) was used for desalting the sample. The HPLC gradient was: 5% B for 5 minutes; 5% B to 95% B in 1 minute; and from 95% B to 5% B in another 4 minutes. The QSTAR TOFMS scan was from 2000 to 3500 amu, and cycles were 899. All MS raw data were analyzed using the Analyst QS software (Applied Biosystems). For SEC analysis of the DVD-Ig binding protein, purified DVD-Ig binding protein and chimeric Abs, in PBS, were applied on a Superose 6 10/300 G2, 300×10 mm column (Amersham Bioscience, Piscataway, N.J.). An HPLC instrument, Model 10A (Shimadzu, Columbia, Md.) was used for SEC. All proteins were determined using UV detection at 280 nm and 214 nm. The elution was isocratic at a flow rate of 0.5 mL/minute. For stability study, samples in the concentration range of 0.2-0.4 mg/ml in PBS underwent 3 freeze-thaw cycles between −80° C. and 25° C., or were incubated at 4° C., 25° C., or 40° C., for 4 weeks and 8 weeks, followed by SEC analysis.
In order to determine the precise molecular weight of the DVD-Ig binding proteins, mass spectrometry was employed. […] To further study the physical properties of DVD-Ig binding protein in solution, size exclusion chromatography (SEC) was used to analyze each protein.
The physical stability of DVD-Ig was tested as follows. Purified antibodies in the concentration range of 0.2-0.4 mg/ml in PBS underwent 3 freeze-thaw cycles between −80° C. and 25° C., or were incubated at 4° C., 25° C., or 40° C., for 4 weeks and 8 weeks, followed by analysis using size exclusion chromatography (SEC) analysis (see Table 12).

hIL-1β = hIL-1β (Homo sapiens, UniProt P01584); experiment: Surface plasmon resonance (Biacore) binding kinetics and affinity to hIL-1β; conditions: antigen hIL-1β
Description: (§1) The kinetics of DVD-Ig molecules binding to rhIL1-α and rhIL1-β was determined by surface plasmon resonance-based measurements with a Biacore 3000 instrument (Biacore AB, Uppsala, Sweden) using HBS-EP (10 mM HEPES, pH 7.4, 150 mM NaCl, 3 mM EDTA, and 0.005% surfactant P20) at 25° C. All chemicals were obtained from Biacore AB (Uppsala, Sweden) or otherwise from a different source as described herein. Approximately, 5000 RU of goat anti-human IgG Fcγ fragment specific polyclonal antibody (Pierce Biotechnology Inc, Rockford, Ill.) diluted in 10 mM sodium acetate (pH 4.5) was directly immobilized across a CM5 research grade biosensor chip using a standard amine coupling kit according to manufacturer's instructions and procedures at […]. Unreacted moieties on the biosensor surface were blocked with ethanolamine. Modified carboxymethyl dextran surface in flowcell 2 and 4 was used as a reaction surface. Unmodified carboxymethyl dextran without goat anti-human IgG in flow cell 1 and 3 was used as the reference surface. For kinetic analysis, rate equations derived from the 1:1 Langmuir binding model were fitted simultaneously to association and dissociation phases of all ten injections (using global fit analysis) using the Bioevaluation 4.0.1 software. Purified DVD-Ig samples were diluted in HEPES-buffered saline for capture across goat anti-human IgG Fc specific reaction surfaces and injected over reaction matrices at a flow rate of […]. The association and dissociation rate constants, kon (M-1s-1) and koff (s-1) were determined under a continuous flow rate of […]. Rate constants were derived by making kinetic binding measurements at ten different antigen concentrations ranging from 1.25 to 1000 nM. The equilibrium dissociation constant (M) of the reaction between DVD-Ig molecule and rhIL1α/β was then calculated from the kinetic rate constants by the following formula: KD=koff/kon. Aliquots of rhIL1α/β samples were also simultaneously injected over a blank reference and reaction CM surface to record and subtract any nonspecific binding background to eliminate the majority of the refractive index change and injection noise. Surfaces were regenerated with two subsequent […] injections of 10 mM Glycine (pH 1.5) at a flow rate of […]. The anti-Fc antibody immobilized surfaces were completely regenerated and retained their full capture capacity over twelve cycles. The apparent stoichiometry of the captured DVD-Ig-rhIL1α/β complex was calculated under saturating binding conditions (steady-state equilibrium) using the following formula: […]

hIL-1α = target: T1, hIL-1α; experiment: Surface plasmon resonance (Biacore) binding kinetics and affinity to hIL-1α; conditions: antigen hIL-1α
Description: as §1

[2] = 3xFreeze-Thaw between −80° C. and 25° C.

hIL-1β, sequence (P01584 117-269): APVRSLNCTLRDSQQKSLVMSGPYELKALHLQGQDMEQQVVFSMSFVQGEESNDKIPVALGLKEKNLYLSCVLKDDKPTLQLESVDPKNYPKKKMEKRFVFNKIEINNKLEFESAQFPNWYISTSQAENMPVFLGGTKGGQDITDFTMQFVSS

| Molecule | Ab (intact antibody) [1, 2] | Agg (aggregates) [1, 2] | Frgm (fragments) [1, 2] | Ab (intact antibody) ([1]; 4° C. @ 4 Wks) | Agg (aggregates) ([1]; 4° C. @ 4 Wks) | Frgm (fragments) ([1]; 4° C. @ 4 Wks) | Ab (intact antibody) ([1]; 4° C. @ 8 Wks) | Agg (aggregates) ([1]; 4° C. @ 8 Wks) | Frgm (fragments) ([1]; 4° C. @ 8 Wks) | Ab (intact antibody) ([1]; 25° C. @ 4 Wks) | Agg (aggregates) ([1]; 25° C. @ 4 Wks) | Frgm (fragments) ([1]; 25° C. @ 4 Wks) | Ab (intact antibody) ([1]; 25° C. @ 8 Wks) | Frgm (fragments) ([1]; 25° C. @ 8 Wks) | Ab (intact antibody) ([1]; 40° C. @ 4 Wks) | Agg (aggregates) ([1]; 40° C. @ 4 Wks) | Frgm (fragments) ([1]; 40° C. @ 4 Wks) | Ab (intact antibody) ([1]; 40° C. @ 8 Wks) | Agg (aggregates) ([1]; 40° C. @ 8 Wks) | Frgm (fragments) ([1]; 40° C. @ 8 Wks) | further results |
| --- | --- | --- | --- | --- | --- | --- | --- | --- | --- | --- | --- | --- | --- | --- | --- | --- | --- | --- | --- | --- | --- |
| B1 | 87.0 percentage | 13.0 percentage | 0.0 percentage | 95.8 percentage | 4.2 percentage | 0.0 percentage | 97.8 percentage | 2.2 percentage | 0.0 percentage | 100.0 percentage | 0.0 percentage | 0.0 percentage | 97.5 percentage | 1.0 percentage | 78.1 percentage | 20.3 percentage | 1.6 percentage | 65.4 percentage | 34.6 percentage | 0.0 percentage | Agg (aggregates) ([1]; 25° C. @ 8 Wks): 1.4 percentage; koff (hIL-1β): 0.000654 s⁻¹; kon (hIL-1β): 1.41e+06 M⁻¹ s⁻¹ |
| B2 |  |  |  |  |  |  |  |  |  |  |  |  |  |  |  |  |  |  |  |  | koff (hIL-1β): 0.000621 s⁻¹; kon (hIL-1β): 2.13e+06 M⁻¹ s⁻¹ |
| B3 | 98.28 percentage | 1.72 percentage | 0.00 percentage | 99.15 percentage | 0.85 percentage | 0.00 percentage | 90.33 percentage | 5.35 percentage | 4.32 percentage | 98.71 percentage | 1.29 percentage | 0.00 percentage | 60.55 percentage | 38.34 percentage | 98.35 percentage | 1.65 percentage | 0.00 percentage | 81.47 percentage | 4.74 percentage | 13.79 percentage | koff (hIL-1α): 0.000552 s⁻¹; kon (hIL-1α): 412000 M⁻¹ s⁻¹ |
| B4 |  |  |  |  |  |  |  |  |  |  |  |  |  |  |  |  |  |  |  |  | koff (hIL-1α): 0.000713 s⁻¹; kon (hIL-1α): 643000 M⁻¹ s⁻¹ |
